± gives the standard deviation of the averaged measurements.
System: Saccharomyces cerevisiae
Experiment: protein stability index of tFT-peptide fusion (C-terminal peptide) (PSI (0-1 scale)); higher = more stable (slower turnover)
Details: temperature: 30 C
Method: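 MPS profiling in S. cerevisiae of the yeast C-terminome library: the last 12 aa of each annotated ORF are fused to the C-terminus of a sfGFP-mCherry timer, after a GGGS linker. Cells are FACS-sorted into 8 mCherry/sfGFP bins and deep-sequenced. PSI runs from 0 (unstable) to 1 (stable); wild type and das1Δ backgrounds, two technical replicates each.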

[1] = genetic background: das1 deletion

Sequence	protein stability index [1]	protein stability index (genetic background: wild type)
THKQYFWKKPAK [TOS4 C-terminal 12 aa]	0.707 ± 0.03	0.688 ± 0.058
EKAERRKLSQGR [QRI5 C-terminal 12 aa]	0.686 ± 0.02	0.6807 ± 0.002
NVFNPDQPRMGP [YLR154W-A C-terminal 12 aa]	0.711 ± 0.017	0.711 ± 0.018
HEYVTINGDYRS [ARG7 C-terminal 12 aa]	0.679 ± 0.017	0.702 ± 0.032
FDREDAMKKENK [DPH2 C-terminal 12 aa]	0.692 ± 0.024	0.663 ± 0.059
LFTCTDPNDTIE [MMS4 C-terminal 12 aa]	0.721 ± 0.027	0.72 ± 0.03
KHKNILSFNNNT [YDR543C C-terminal 12 aa]	0.687 ± 0.02	0.709 ± 0.041
YVFVFIIDFIIR [FUN26 C-terminal 12 aa]	0.213 ± 0.006	0.245 ± 0.0059
IELQLTEIPKHK [FIN1 C-terminal 12 aa]	0.701 ± 0.022	0.727 ± 0.085
VNNAPARAKVSK [RCR2 C-terminal 12 aa]	0.67539 ± 0.00065	0.669 ± 0.0023
GTKEYYKGYEYL [MRX16 C-terminal 12 aa]	0.6984 ± 0.0016	0.6641 ± 0.0017
DGEFVVSDLRLR [YOR283W C-terminal 12 aa]	0.708 ± 0.0071	0.682 ± 0.015
LLQSGRYGGNRS [RCI37 C-terminal 12 aa]	0.683 ± 0.011	0.663 ± 0.021
NRRNNGYHPYNR [HRP1 C-terminal 12 aa]	0.688 ± 0.019	0.6645 ± 0.0011
NSISPPPRKGFI [YGL006W-A C-terminal 12 aa]	0.7177 ± 0.005	0.714 ± 0.055
EKMLAAPHQNKV [SPR28 C-terminal 12 aa]	0.696 ± 0.015	0.6924 ± 0.001
GTKEYCKMIDFL [YLR108C C-terminal 12 aa]	0.704 ± 0.014	0.688 ± 0.019
VSGFYDHDINGY [APJ1 C-terminal 12 aa]	0.7529 ± 0.0033	0.722 ± 0.0078
GWFEEVRDHKRH [SKY1 C-terminal 12 aa]	0.731 ± 0.017	0.753 ± 0.022
WDLEQIMSQHGF [PCL1 C-terminal 12 aa]	0.7397 ± 0.007	0.735 ± 0.0046
AHRENIAFPPQF [YHR033W C-terminal 12 aa]	0.739 ± 0.0092	0.744 ± 0.067

Sequence	protein stability index [1]	protein stability index (genetic background: wild type)
MAQNYVIDRMGL [MTC1 C-terminal 12 aa]	0.707 ± 0.027	0.68 ± 0.037
MERELIKEEYDN [PAA1 C-terminal 12 aa]	0.702 ± 0.025	0.67 ± 0.031
KYNSQKRATTPA [COQ4 C-terminal 12 aa]	0.712 ± 0.027	0.6698 ± 0.0039
IAKRFAKALGRS [ARN2 C-terminal 12 aa]	0.711 ± 0.0084	0.695 ± 0.016
KKMEARGQSIWV [RPN9 C-terminal 12 aa]	0.713 ± 0.0075	0.6728 ± 0.0014
LKQLDNLKSQLN [ARG4 C-terminal 12 aa]	0.7 ± 0.013	0.6755 ± 0.0019
INILPVRKKKKV [SAS4 C-terminal 12 aa]	0.705 ± 0.024	0.685 ± 0.036
ERNPSQRPQRRY [RPS10B C-terminal 12 aa]	0.686 ± 0.0083	0.679 ± 0.066
GRLFEGMPGTET [ITT1 C-terminal 12 aa]	0.709 ± 0.0093	0.71 ± 0.03
VWKRARVDLIAS [POL12 C-terminal 12 aa]	0.591 ± 0.019	0.51 ± 0.029
SLENVAMLVYKK [TRM13 C-terminal 12 aa]	0.698 ± 0.048	0.66 ± 0.026
DKSCIDIRSIIH [YAP5 C-terminal 12 aa]	0.706 ± 0.011	0.726 ± 0.041
RDLFEIYQKMMQ [MUK1 C-terminal 12 aa]	0.725 ± 0.02	0.706 ± 0.056
EKANDIGFHKYR [RPS29B C-terminal 12 aa]	0.6797 ± 0.0058	0.648 ± 0.027
SGNNLGICFYKE [NUP170 C-terminal 12 aa]	0.6733 ± 0.005	0.677 ± 0.019
QKAQDVDVSMQD [RPN13 C-terminal 12 aa]	0.68 ± 0.022	0.654 ± 0.026
MAEKQIASEFNY [DBP7 C-terminal 12 aa]	0.721 ± 0.012	0.662 ± 0.0067
TEPLYILRWLRS [YDR290W C-terminal 12 aa]	0.678 ± 0.008	0.313 ± 0.0053
ISKLKGISKPSP [MDS3 C-terminal 12 aa]	0.682 ± 0.014	0.687 ± 0.023
EDVEVPFITIHL [UBA1 C-terminal 12 aa]	0.6884 ± 0.0057	0.683 ± 0.017
FFFSNSFLPASR [YJL127W-A C-terminal 12 aa]	0.7317 ± 0.0022	0.788 ± 0.11

Sequence	protein stability index [1]	protein stability index (genetic background: wild type)
ITSKRKAELLLK [DIS3 C-terminal 12 aa]	0.723 ± 0.062	0.7544 ± 0.007
KKSKPRANKLTI [ECM2 C-terminal 12 aa]	0.713 ± 0.02	0.696 ± 0.017
DELSLRPATERI [YGR038C-E C-terminal 12 aa]	0.739 ± 0.23	0.571
GAAIAGAAAMLL [TIR3 C-terminal 12 aa]	0.718 ± 0.014	0.713 ± 0.022
LRASGDDSDPAY [PFA5 C-terminal 12 aa]	0.7076 ± 0.0054	0.687 ± 0.014
VVIIVPIVVHFS [SNC2 C-terminal 12 aa]	0.351 ± 0.012	0.425 ± 0.046
RELLKSLVLSHR [RSM23 C-terminal 12 aa]	0.703 ± 0.0085	0.683 ± 0.019
SGFFSSLKTMFN [PAR32 C-terminal 12 aa]	0.719 ± 0.027	0.726 ± 0.058
LATWDKQGNLKY [SRN2 C-terminal 12 aa]	0.724 ± 0.012	0.696 ± 0.026
EDVDEDTTPFNV [YTP1 C-terminal 12 aa]	0.7138 ± 0.0053	0.684 ± 0.013
TATAPRLFDKLK [QCR6 C-terminal 12 aa]	0.7007 ± 0.007	0.662 ± 0.026
KRDKLKKNCVIM [YGL082W C-terminal 12 aa]	0.74 ± 0.016	0.698 ± 0.034
PPSPQEELLIEL [VPS27 C-terminal 12 aa]	0.721 ± 0.017	0.7051 ± 0.0024
KPDVERVYKENT [FAA4 C-terminal 12 aa]	0.701 ± 0.025	0.665 ± 0.011
FWFLFPLRLPGG [IRC16 C-terminal 12 aa]	0.5766 ± 0.0015	0.5685 ± 0.0012
GNNNCPLHMDYI [STE5 C-terminal 12 aa]	0.7274 ± 0.0071	0.723 ± 0.015
FIAHLILTDALK [ULP1 C-terminal 12 aa]	0.64 ± 0.025	0.691 ± 0.039
IIRSEKKKKEEQ [YBR292C C-terminal 12 aa]	0.748 ± 0.041	0.659 ± 0.039
YILFFLFQLSIM [PEX35 C-terminal 12 aa]	0.342 ± 0.02	0.369 ± 0.015

From the supplement of paper PMC10724198
